Results published in PMC3919171.

Experiments:
[1] = target: collagen VI monomer with the murine collagen VI α3 chain (N9-C5) carrying the R1061Q mutation (mouse | human (endogenous in SaOS-2)); test: non-reducing agarose/polyacrylamide composite gel electrophoresis with immunoblot; culture medium (4-14 days) and cell extracts of transfected SaOS-2 cells, SDS loading buffer with 2 M urea, non-reducing, 0.5% agarose/2.4% polyacrylamide; detected with an antibody against the α3 C terminus; sizes from purified collagen VI as a standard; monomers to tetramers
[2] = target: collagen VI monomer with the wild-type murine collagen VI α3 chain (N9-C5) (mouse | human (endogenous in SaOS-2)) (UniProt P12109); test: as above

Row | stoichiometry N [1] | stoichiometry N [2] | Substance
1 | 4 | – | collagen VI monomer with the murine collagen VI α3 chain (N9-C5) carrying the R1061Q mutation (from UniProt P12109 20-1028; P12110 21-1019) (complex)
2 | – | 4 | collagen VI monomer with the wild-type murine collagen VI α3 chain (N9-C5) (from UniProt P12109 20-1028; P12110 21-1019) (complex)
